# Test results reported in the supplement of paper PMC10567573.
# B1: SPATS1 (parent)
# chain: GRKKYDIDPRNGIPKLTPGDNPYM
# B2: ZNF8 (parent)
# chain: RTHTGEKPYTCSVCGKSFSRTTCL
# Variants of: B1
# Test: protein stability index of a GFP-peptide fusion (GPS, HEK-293T) (PSI 1-6); higher = more stable
# Details: c terminus: a fixed tail appended
# 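Also: lentivirally expressed fusions sorted by FACS into six bins by GFP to DsRed ratio, PSI derived from sequencing read proportions per bin multiplied by bin number.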
row,Variant,protein stability index
1,GRKKYDIDPRNGIPKLTMGDNPYM,3.18
2,GRKKYDIDPRNGIPKLTGGDNPYM,2.98
3,GRKKYDIDPRNGIPKLTLGDNPYM,2.81
4,GRKKYDIDPRNGIPKLTWGDNPYM,2.73
5,GRKKYDIDPRNGIPKLTTGDNPYM,3.85
6,GRKKYDIDPRNGIPKLTPGDPPYM,3.54
7,GRKKYDPDPRNGIPKLTPGDNPYM,3.71
8,GRKKYDEDPRNGIPKLTPGDNPYM,4.5
9,GRKKYDQDPRNGIPKLTPGDNPYM,4.17
10,GRKKYDNDPRNGIPKLTPGDNPYM,3.86
11,GRKKYDSDPRNGIPKLTPGDNPYM,4.25
12,GRKKYDIDPRNGIPKLTPGENPYM,3.65
13,GRKKYDIDPRNGIPKLTPGPNPYM,3.2
14,GRKKYDIDPRNGIPKLTPGDNAYM,4.01
15,GRKKYDIDPRNGIPKLTPGDNMYM,3.37
16,GRKKYDIDPRNGIPKLTPGDNHYM,3.74
17,GRKKYDIDPRNGIPKLTPGDNFYM,3.02
18,GRKKYDIDPRNGIPKLTPGDNPCM,3.26
19,GRKKYDIDPRNGIPKLTPGDNPMM,3.82
20,GRKKYDIDPRNGIPKNTPGDNPYM,4.24
21,GRKKYDIDPRNGIPKITPGDNPYM,3.47
22,GRKKYDIDPRNGIPKTTPGDNPYM,3.98
23,GRKKYDIDPRNGIPKLTPGDNPYR,3.59
24,GRKKYDIDPRNGIPKLTPGDNPYT,4.04
25,GRKKGDIDPRNGIPKLTPGDNPYM,4.44
26,GRKKIDIDPRNGIPKLTPGDNPYM,3.4

row,Variant,protein stability index
1,GRKKEDIDPRNGIPKLTPGDNPYM,4.86
2,GRKKYDIDPCNGIPKLTPGDNPYM,3.77
3,GRKKYDIDPLNGIPKLTPGDNPYM,3.53
4,GRKKYDIDCRNGIPKLTPGDNPYM,3.72
5,GRKKYDIDQRNGIPKLTPGDNPYM,3.67
6,GRKKYDIDWRNGIPKLTPGDNPYM,2.52
7,GRKKYDIDPRIGIPKLTPGDNPYM,3.22
8,GRKKYDIDPRVGIPKLTPGDNPYM,3.28
9,GRKKYDIDPRPGIPKLTPGDNPYM,3.8
10,GRKKYDIDPRTGIPKLTPGDNPYM,3.46
11,GRKKYDIDPRRGIPKLTPGDNPYM,3.28
12,GRKTYDIDPRNGIPKLTPGDNPYM,3.48
13,GRKGYDIDPRNGIPKLTPGDNPYM,3.71
14,GRKHYDIDPRNGIPKLTPGDNPYM,3.2
15,GRKKYDIDPRNGIPKLRPGDNPYM,2.95
16,GRKKYDIDPRNGIPKLLPGDNPYM,3.31
17,GRKKYDIDPRNGIPKLMPGDNPYM,3.02
18,GRKKYDIDPRNGIPKLCPGDNPYM,3.13
19,GRKKYDIDPRNGIPKLGPGDNPYM,3.48
20,GRKKYGIDPRNGIPKLTPGDNPYM,3.51
21,GRKKYQIDPRNGIPKLTPGDNPYM,2.94
22,GRKKYKIDPRNGIPKLTPGDNPYM,3.33
23,GRKKYDIDPRNGIMKLTPGDNPYM,3.05
24,GRKKYDIDPRNGIRKLTPGDNPYM,2.99
25,GRMKYDIDPRNGIPKLTPGDNPYM,3.2
26,GRPKYDIDPRNGIPKLTPGDNPYM,3.29

row,Variant,protein stability index
1,GRFKYDIDPRNGIPKLTPGDNPYM,2.83
2,GRKKYDIDPRNRIPKLTPGDNPYM,3.42
3,GRKKYDIDPRNLIPKLTPGDNPYM,3.09
4,GRKKYDIDPRNEIPKLTPGDNPYM,3.97
5,GRKKYDIQPRNGIPKLTPGDNPYM,3.83
6,GRKKYDIGPRNGIPKLTPGDNPYM,2.93
7,GRKKYDIPPRNGIPKLTPGDNPYM,3.42
8,GRKKYDIRPRNGIPKLTPGDNPYM,3.08
9,GQKKYDIDPRNGIPKLTPGDNPYM,3.59
10,GEKKYDIDPRNGIPKLTPGDNPYM,4.15
11,GFKKYDIDPRNGIPKLTPGDNPYM,3.4
12,GWKKYDIDPRNGIPKLTPGDNPYM,2.73
13,GPKKYDIDPRNGIPKLTPGDNPYM,3.73
14,GHKKYDIDPRNGIPKLTPGDNPYM,3.85
15,GTKKYDIDPRNGIPKLTPGDNPYM,3.15
16,GMKKYDIDPRNGIPKLTPGDNPYM,3.37
17,GRKKYDIDPRNGAPKLTPGDNPYM,4.14
18,GRKKYDIDPRNGRPKLTPGDNPYM,3.58
19,GRKKYDIDPRNGWPKLTPGDNPYM,3.44
20,GRKKYDIDPRNGDPKLTPGDNPYM,4.92
21,FRKKYDIDPRNGIPKLTPGDNPYM,2.88
22,RRKKYDIDPRNGIPKLTPGDNPYM,3.93
23,MRKKYDIDPRNGIPKLTPGDNPYM,3.12
24,GRKKYDIDPRNGIPKLTPSDNPYM,3.59
25,GRKKYDIDPRNGIPKLTPYDNPYM,2.79

# Variants of: B2
# Test: as above
# Details: c terminus: a fixed tail appended
row,Variant,protein stability index
1,RTHGGEKPYTCSVCGKSFSRTTCL,2.44
2,RTHFGEKPYTCSVCGKSFSRTTCL,1.69
3,RTHCGEKPYTCSVCGKSFSRTTCL,2.32
4,RTHVGEKPYTCSVCGKSFSRTTCL,1.93
5,RTHQGEKPYTCSVCGKSFSRTTCL,2.31
6,RTHDGEKPYTCSVCGKSFSRTTCL,2.49
7,RTHAGEKPYTCSVCGKSFSRTTCL,2.1
8,RTHPGEKPYTCSVCGKSFSRTTCL,2.22
9,RTHRGEKPYTCSVCGKSFSRTTCL,2.66
10,RTHWGEKPYTCSVCGKSFSRTTCL,1.83
11,RTHEGEKPYTCSVCGKSFSRTTCL,3.43
12,RTHSGEKPYTCSVCGKSFSRTTCL,2.77
13,RTHLGEKPYTCSVCGKSFSRTTCL,2.18
14,RTHIGEKPYTCSVCGKSFSRTTCL,2.13
15,RTHNGEKPYTCSVCGKSFSRTTCL,3.12
16,RTHHGEKPYTCSVCGKSFSRTTCL,2.99
17,RTHKGEKPYTCSVCGKSFSRTTCL,3.02
18,RTHYGEKPYTCSVCGKSFSRTTCL,2.27
19,RTHMGEKPYTCSVCGKSFSRTTCL,2.16
20,RTHTGIKPYTCSVCGKSFSRTTCL,2.75
21,RTHTGAKPYTCSVCGKSFSRTTCL,2.31
22,RTHTGPKPYTCSVCGKSFSRTTCL,2.11
23,RTHTGKKPYTCSVCGKSFSRTTCL,2.53

row,Variant,protein stability index
1,RTHTGWKPYTCSVCGKSFSRTTCL,2.06
2,RTHTGNKPYTCSVCGKSFSRTTCL,1.96
3,RTHTGQKPYTCSVCGKSFSRTTCL,2.06
4,RTHTGTKPYTCSVCGKSFSRTTCL,2.08
5,RTHTGRKPYTCSVCGKSFSRTTCL,1.92
6,RTHTGVKPYTCSVCGKSFSRTTCL,2.04
7,RTHTGGKPYTCSVCGKSFSRTTCL,2.26
8,RTHTGCKPYTCSVCGKSFSRTTCL,2.28
9,RTHTGMKPYTCSVCGKSFSRTTCL,2.19
10,RTHTGSKPYTCSVCGKSFSRTTCL,1.92
11,RTHTGDKPYTCSVCGKSFSRTTCL,2.9
12,RTHTGFKPYTCSVCGKSFSRTTCL,2.11
13,RTHTGHKPYTCSVCGKSFSRTTCL,2.48
14,RTHTGLKPYTCSVCGKSFSRTTCL,2.1
15,RTETGEKPYTCSVCGKSFSRTTCL,2.72
16,RTPTGEKPYTCSVCGKSFSRTTCL,2.46
17,RTFTGEKPYTCSVCGKSFSRTTCL,2.08
18,RTTTGEKPYTCSVCGKSFSRTTCL,2.44
19,RTRTGEKPYTCSVCGKSFSRTTCL,2.15
20,RTGTGEKPYTCSVCGKSFSRTTCL,2.86
21,RTITGEKPYTCSVCGKSFSRTTCL,2.21
22,RTVTGEKPYTCSVCGKSFSRTTCL,2.82
23,RTCTGEKPYTCSVCGKSFSRTTCL,2.77

row,Variant,protein stability index
1,RTNTGEKPYTCSVCGKSFSRTTCL,2.72
2,RTQTGEKPYTCSVCGKSFSRTTCL,2.2
3,RTMTGEKPYTCSVCGKSFSRTTCL,2.37
4,RTATGEKPYTCSVCGKSFSRTTCL,1.86
5,RTKTGEKPYTCSVCGKSFSRTTCL,2.05
6,RTLTGEKPYTCSVCGKSFSRTTCL,1.88
7,RTYTGEKPYTCSVCGKSFSRTTCL,2.27
8,RTDTGEKPYTCSVCGKSFSRTTCL,2.82
9,RTWTGEKPYTCSVCGKSFSRTTCL,1.82
10,RTSTGEKPYTCSVCGKSFSRTTCL,2.66
11,RPHTGEKPYTCSVCGKSFSRTTCL,2.2
12,RNHTGEKPYTCSVCGKSFSRTTCL,2.49
13,RCHTGEKPYTCSVCGKSFSRTTCL,3.48
14,REHTGEKPYTCSVCGKSFSRTTCL,2.85
15,RMHTGEKPYTCSVCGKSFSRTTCL,2.39
16,RLHTGEKPYTCSVCGKSFSRTTCL,2.1
17,RQHTGEKPYTCSVCGKSFSRTTCL,2.66
18,RVHTGEKPYTCSVCGKSFSRTTCL,2.55
19,RYHTGEKPYTCSVCGKSFSRTTCL,2.07
20,RAHTGEKPYTCSVCGKSFSRTTCL,2.32
21,RWHTGEKPYTCSVCGKSFSRTTCL,2.2
22,RIHTGEKPYTCSVCGKSFSRTTCL,1.86
23,RFHTGEKPYTCSVCGKSFSRTTCL,2.69

row,Variant,protein stability index
1,RRHTGEKPYTCSVCGKSFSRTTCL,2.19
2,RGHTGEKPYTCSVCGKSFSRTTCL,2.52
3,RDHTGEKPYTCSVCGKSFSRTTCL,2.93
4,RKHTGEKPYTCSVCGKSFSRTTCL,2.76
5,RHHTGEKPYTCSVCGKSFSRTTCL,2.52
6,CTHTGEKPYTCSVCGKSFSRTTCL,4.33
7,TTHTGEKPYTCSVCGKSFSRTTCL,3.04
8,STHTGEKPYTCSVCGKSFSRTTCL,2.34
9,NTHTGEKPYTCSVCGKSFSRTTCL,2.6
10,MTHTGEKPYTCSVCGKSFSRTTCL,2.61
11,GTHTGEKPYTCSVCGKSFSRTTCL,3
12,FTHTGEKPYTCSVCGKSFSRTTCL,2.22
13,LTHTGEKPYTCSVCGKSFSRTTCL,1.94
14,KTHTGEKPYTCSVCGKSFSRTTCL,2.24
15,DTHTGEKPYTCSVCGKSFSRTTCL,2.85
16,QTHTGEKPYTCSVCGKSFSRTTCL,2.33
17,PTHTGEKPYTCSVCGKSFSRTTCL,2.64
18,VTHTGEKPYTCSVCGKSFSRTTCL,3.18
19,YTHTGEKPYTCSVCGKSFSRTTCL,2.51
20,ETHTGEKPYTCSVCGKSFSRTTCL,3.13
21,HTHTGEKPYTCSVCGKSFSRTTCL,2.85
22,ATHTGEKPYTCSVCGKSFSRTTCL,2.43
23,ITHTGEKPYTCSVCGKSFSRTTCL,2.59

row,Variant,protein stability index
1,RTHTFEKPYTCSVCGKSFSRTTCL,2.64
2,RTHTHEKPYTCSVCGKSFSRTTCL,2.25
3,RTHTWEKPYTCSVCGKSFSRTTCL,2.74
4,RTHTSEKPYTCSVCGKSFSRTTCL,3.15
5,RTHTKEKPYTCSVCGKSFSRTTCL,2.78
6,RTHTTEKPYTCSVCGKSFSRTTCL,2.4
7,RTHTQEKPYTCSVCGKSFSRTTCL,2.36
8,RTHTDEKPYTCSVCGKSFSRTTCL,2.62
9,RTHTYEKPYTCSVCGKSFSRTTCL,2.15
10,RTHTREKPYTCSVCGKSFSRTTCL,2.5
11,RTHTIEKPYTCSVCGKSFSRTTCL,3.05
12,RTHTPEKPYTCSVCGKSFSRTTCL,2.4
13,RTHTLEKPYTCSVCGKSFSRTTCL,2.29
14,RTHTVEKPYTCSVCGKSFSRTTCL,2.87
15,RTHTEEKPYTCSVCGKSFSRTTCL,3.25
16,RTHTMEKPYTCSVCGKSFSRTTCL,2.48
17,RTHTAEKPYTCSVCGKSFSRTTCL,2.3
18,RTHTCEKPYTCSVCGKSFSRTTCL,2.84
19,RTHTNEKPYTCSVCGKSFSRTTCL,2.66
